Marks after values point to notes of the source that are not given here.
Experiments:
MRSA-M2 [1] = assay: Rabbit tibial osteomyelitis model: vaccination, MRSA challenge, then vancomycin therapy; conditions: rabbits, 75 μg each antigen per injection
MRSA-M2 [2] = assay: Rabbit tibial osteomyelitis (biofilm) infection model: vaccination, then intratibial MRSA-M2 challenge; assay type: in vivo, Staphylococcus aureus
Experimental: Animals were divided at random into groups.
Production of osteomyelitis. […] The infection was allowed to progress for 14 days.
Analysis of vaccine efficacy. Vaccine efficacy was evaluated in three ways.
Among these antigens, autolysin (AtlA) was one of the most immunoreactive. Because of its reported role in biofilm formation (31, 32) and its up-regulation during early biofilm growth (when an immune response could theoretically eradicate the biofilm), autolysin was tested as a vaccine. Purified recombinant glucosaminidase (one of the two protein components of AtlA) was injected into rabbits (three doses of 10 μg each, 10 days apart) and then animals were challenged using a tibial osteomyelitis infection.
Antibodies elicited by a single antigen vaccine may not provide adequate immunological recognition of the biofilm in vivo to enable complete microbial clearance. […] Therefore, the aforementioned antigens were tested as a multi-component vaccine. To this end, animals were vaccinated with 10 μg of each of four antigens: glucosaminidase, SA0688 (an ABC transporter lipoprotein), SA0037 (a conserved hypothetical protein), and SA0486 (a hypothetical lipoprotein), following the same dosing schedule as above. […] As well, vaccinated animals trended to lower CFU counts and an 88% reduction in bacterial loads in the tibia (FIG. 3A—quadrivalent). However, this reduction in bacterial populations was not statistically significant. Two doses of the combined vaccine at 15 μg each per dose were also studied, wherein increasing the prime and boost may lead to a more robust initial immune response when the biofilm is immature (and thus, enable clearance by the immune response).

CN[C@H](CC(C)C)C(=O)N[C@H]1C(=O)N[C@@H](CC(N)=O)C(=O)N[C@H]2C(=O)N[C@H]3C(=O)N[C@H](C(=O)N[C@H](C(=O)O)c4cc(O)cc(O)c4-c4cc3ccc4O)[C@H](O)c3ccc(c(Cl)c3)Oc3cc2cc(c3O[C@@H]2O[C@H](CO)[C@@H](O)[C@H](O)[C@H]2O[C@H]2C[C@](C)(N)[C@H](O)[C@H](C)O2)Oc2ccc(cc2Cl)[C@H]1O [PBS + vancomycin, vancomycin]
Percentage showing clinical signs of infection (MRSA-M2 [1]; vancomycin 40 mg/kg twice daily for ten days): 100% | Mean radiological score (MRSA-M2 [1]; vancomycin 40 mg/kg twice daily for ten days from 14 days after challenge, score 0 to 4+): 2.1

B1: Glucosaminidase: Purified recombinant S. aureus glucosaminidase (SEQ ID NO:1), one of the two protein components of autolysin AtlA (protein, listed as Staphylococcus aureus)
chain: MAKKFNYKLPSMVALTLVGSAVTAHQVQAAETTQDQTTNKNVLDSNKVKATTEQAKAEVKNPTQNISGTQVYQDPAIVQPKAANKTGNAQVNQKVDTTQVNGDTRATQSTTSNNAKPVTKSTNTTAPKTNNNVTSAGYSLVDDEDDNSENQINPELIKSAAKPAALETQYKAAAPKATPVAPKAKTEATPKVTTFSASAQPRSAAAAPKTSLPKYKPQVNSSINDYIRKNNLKAPKIEEDYTSYFPKYAYRNGVGRPEGIVVHDTANDRSTINGEISYMKNNYQNAFVHAFVDGDRIIETAPTDYLSWGVGAVGNPRFINVEIVHTHDYASFARSMNNYADYAATQLQYYGLKPDSAEYDGNGTVWTHYAVSKYLGGTDHADPHGYLRSHNYSYDQLYDLINEKYLIKMGKVAPWGTQSTTTPTTPSKPSTPSKPSTPSTGKLTVAANNGVAQIKPTNSGLYTTVYDKTGKATNEVQKTFAVSKTATLGNQKFYLVQDYNSGNKFGWVKEGDVVYNTAKSPVNVNQSYSIKPGTKLYTVPWGTSKQVAGSVSGSGNQTFKASKQQQIDKSIYLYGSVNGKSGWVSKAYLVDTAKPTPTPTPKPSTPTTNNKLTVSSLNGVAQINAKNNGLFTTVYDKTGKPTKEVQKTFAVTKEASLGGNKFYLVKDYNSPTLIGWVKQGDVIYNNAKSPVNVMQTYTVKPGTKLYSVPWGTYKQEAGAVSGTGNQTFKATKQQQIDKSIYLYGTVNGKSGWISKAYLAVPAAPKKAVAQPKTAVKAYAVTKPQTTQTVSKIAQVKPNNTGIRASVYEKTAKNGAKYADRTFYVTKERAHGNETYVLLNNTSHNIPLGWFNVKDLNVQNLGKEVKTTQKYTVNRSNNGLSMVPWGTKNQVILTGNNIAQGTFNATKQVSVGKDVYLYGTINNRTGWVNSKDLTAPTAVKPTTSAAKDYNYTYVIKNGNGYYYVTPNSDTAKYSLKAFNEQPFAVVKEQVINGQTWYYGKLSNGKLAWIKSTDLAKELIKYNQIGMTLNQVAQIQAGLQYKPQVQRVPGKWTDANFNDVKHAMDTKRLAQDPALKYQFLRLDQPQNISIDKINQFLKGKGVLENQGAAFNKAAQMYGINEVYLISHALLETGNGTSQLAKGADVVNNKVVTNSNTKYHNVFGIAAYDNDPLREGIKYAKQAGWDTVSKAIVGGAKFIGNSYVKAGQNTLYKMRWNPAHPGTHQYATDVDWANINAKIIKGYYDKIGEVGKYFDIPQYK
Mean radiological score (MRSA-M2 [2]; New Zealand White rabbits, three i.m. doses of 10 μg (each antigen), 10 days apart, 14 days after intratibial MRSA, score 0 to 4+ (Table 2)): 0.37* | Number cleared (MRSA-M2 [2]; rabbits cleared of infection, 4 glucosaminidase, 5 multi-component animals, three doses of 10 μg (each antigen)): 1 | % showing clinical signs of infection (MRSA-M2 [2]; rabbits, three doses of 10 μg (each antigen), non-weight bearing on affected leg, 14 days after MRSA inoculation): 0% | bacteriological signs of infection compared to PBS-vaccinated controls (MRSA-M2 [2]; rabbits, three doses of 10 μg each, 10 days apart): did not lead to significant differences | Mean CFU/grams bone in affected tibias (MRSA-M2 [2]; rabbits, three doses of 10 μg, FIG. 1, PBS controls 9.84×10^7): 3.6×10^7 CFU/grams bone

Reference: patent US20110177111A1, “[…] AGAINST STAPHYLOCOCCUS AUREUS BIOFILMS […] WALL-[…]” (UNIVERSITY OF MARYLAND, BALTIMORE, priority 2008, published 2011)
